In patent publication US20240336672A1 one finds log10 ΔgMFI data, which are given here for 6 substances.

Common to all, as to experiment: flow cytometry (Mock 2.5)
(Flow cytometry measures light scatter and fluorescence of single cells or particles in a stream.)

Experiment [1] concerns the target α (SARS-CoV-2).
The target in experiment [2] is ε (SARS-CoV-2).
The target of experiment [3] is SARS-CoV-2 δ variant spike protein, cell-expressed (SARS-CoV-2).
Experiment [4] concerns the target β (SARS-CoV-2).
Experiment [5] addresses γ (SARS-CoV-2).
Experiment [6] has as its target κ (SARS-CoV-2).
Experiment [7] concerns the target ι (SARS-CoV-2).

Chain of Adintrevimab (antibody) (VH): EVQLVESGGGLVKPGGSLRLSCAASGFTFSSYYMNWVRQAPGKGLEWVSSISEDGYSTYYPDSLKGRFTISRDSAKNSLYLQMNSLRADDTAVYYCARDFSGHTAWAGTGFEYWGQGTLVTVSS
Chain of Adintrevimab (antibody) (VL): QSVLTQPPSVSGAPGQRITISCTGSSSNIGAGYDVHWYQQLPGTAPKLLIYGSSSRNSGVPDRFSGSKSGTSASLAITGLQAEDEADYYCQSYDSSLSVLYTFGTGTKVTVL

As to Adintrevimab (antibody), the log10 ΔgMFI in experiment [1] turned out to be 4.3; in experiment [2] it was 4.5; in experiment [3], 4.5; in experiment [4], 3.9; in experiment [5], 4.5; in experiment [6], 4.8. The same substance gave a log10 ΔgMFI in experiment [7] of 4.9.

Take BAM (antibody): the log10 ΔgMFI came to 4.4 in experiment [1]; 2.5 in experiment [3]; 2.5 in experiment [4]; 2.5 in experiment [5]; 3.5 in experiment [6]; 2.5 in experiment [7].

For the substance CAS (antibody), the log10 ΔgMFI came to 4.4 in experiment [1]; 4.6 in experiment [2]; 4.6 in experiment [3]; 3.1 in experiment [4]; 4.9 in experiment [6]; 4.9 in experiment [7].

Cilgavimab (antibody): the log10 ΔgMFI in experiment [1] turned out to be 4.4; in experiment [5], 4.7; in experiment [6], 4.7; in experiment [7], 4.9.

Turning to ETE (antibody), the log10 ΔgMFI in experiment [1] was 4.2; in experiment [2] it was 4.5; in experiment [3], 4.5; in experiment [4], 2.5; in experiment [5] it was 2.5; in experiment [6], 4.7. Further, the log10 ΔgMFI in experiment [7] was 4.8.

As to TIX (antibody), the log10 ΔgMFI in experiment [1] was 4.5; in experiment [2], 4.7; in experiment [3], 4.7; in experiment [4] it was 3.9; in experiment [5] it was 4.6; in experiment [6] it was 4.9. Further, the log10 ΔgMFI in experiment [7] is 4.9.
